{"source": "patent US5461032", "molecular_target": "voltage-sensitive sodium channel of nerve membrane (house fly, Musca domestica, third instar larvae) (Musca domestica)", "data": [{"substance": "toxin 4 of the scorpion Leiurus quinquestriatus (peptide)", "values": [{"measurement": "activity of insect peripheral nerve preparations", "result": "> 500", "unit": "nM"}]}]}
